Source: paper PMC5503505 (Nature structural & molecular biology, 2017)

T1: Orc4 (S. cerevisiae, UniProt P54791 1-529)
T1 sequence: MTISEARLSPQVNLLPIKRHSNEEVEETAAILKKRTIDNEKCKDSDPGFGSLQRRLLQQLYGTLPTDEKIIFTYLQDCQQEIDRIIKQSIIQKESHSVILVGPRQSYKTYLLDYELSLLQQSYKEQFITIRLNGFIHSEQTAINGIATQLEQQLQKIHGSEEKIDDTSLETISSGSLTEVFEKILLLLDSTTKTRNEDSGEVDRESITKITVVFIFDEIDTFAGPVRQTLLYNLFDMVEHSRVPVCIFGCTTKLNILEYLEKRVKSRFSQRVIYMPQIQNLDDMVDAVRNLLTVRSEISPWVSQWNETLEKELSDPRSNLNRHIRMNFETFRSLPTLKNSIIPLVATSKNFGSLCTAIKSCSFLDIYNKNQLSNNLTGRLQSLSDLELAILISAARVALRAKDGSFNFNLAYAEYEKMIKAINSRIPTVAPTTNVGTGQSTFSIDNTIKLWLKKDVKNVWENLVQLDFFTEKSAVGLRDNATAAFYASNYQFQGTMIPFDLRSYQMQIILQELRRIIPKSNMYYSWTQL

T2: Mcm2 (S. cerevisiae, UniProt P29469 1-868)
T2 sequence: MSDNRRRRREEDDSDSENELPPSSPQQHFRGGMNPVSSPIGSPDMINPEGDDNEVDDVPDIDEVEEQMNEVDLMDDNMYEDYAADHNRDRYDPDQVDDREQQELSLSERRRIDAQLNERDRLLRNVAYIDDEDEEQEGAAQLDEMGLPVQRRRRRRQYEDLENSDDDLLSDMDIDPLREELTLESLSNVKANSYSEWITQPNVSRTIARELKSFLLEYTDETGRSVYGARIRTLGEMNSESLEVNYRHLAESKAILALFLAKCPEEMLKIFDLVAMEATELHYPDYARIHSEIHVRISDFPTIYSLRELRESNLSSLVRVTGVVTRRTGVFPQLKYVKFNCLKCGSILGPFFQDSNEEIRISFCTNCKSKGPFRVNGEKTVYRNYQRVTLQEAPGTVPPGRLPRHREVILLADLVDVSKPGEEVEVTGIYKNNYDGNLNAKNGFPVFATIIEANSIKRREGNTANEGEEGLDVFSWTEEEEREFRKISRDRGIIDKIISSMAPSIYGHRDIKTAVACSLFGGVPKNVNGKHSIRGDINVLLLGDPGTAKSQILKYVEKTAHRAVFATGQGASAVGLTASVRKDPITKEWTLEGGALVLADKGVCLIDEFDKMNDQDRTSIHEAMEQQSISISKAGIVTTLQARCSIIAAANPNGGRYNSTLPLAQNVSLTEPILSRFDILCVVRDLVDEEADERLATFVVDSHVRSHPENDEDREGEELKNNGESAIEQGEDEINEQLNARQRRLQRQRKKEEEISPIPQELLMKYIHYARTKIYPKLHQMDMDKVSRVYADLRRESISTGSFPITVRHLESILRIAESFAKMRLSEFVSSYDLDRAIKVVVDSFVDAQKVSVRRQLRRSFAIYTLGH

T3: Orc2 (S. cerevisiae, UniProt P32833 1-620)
T3 sequence: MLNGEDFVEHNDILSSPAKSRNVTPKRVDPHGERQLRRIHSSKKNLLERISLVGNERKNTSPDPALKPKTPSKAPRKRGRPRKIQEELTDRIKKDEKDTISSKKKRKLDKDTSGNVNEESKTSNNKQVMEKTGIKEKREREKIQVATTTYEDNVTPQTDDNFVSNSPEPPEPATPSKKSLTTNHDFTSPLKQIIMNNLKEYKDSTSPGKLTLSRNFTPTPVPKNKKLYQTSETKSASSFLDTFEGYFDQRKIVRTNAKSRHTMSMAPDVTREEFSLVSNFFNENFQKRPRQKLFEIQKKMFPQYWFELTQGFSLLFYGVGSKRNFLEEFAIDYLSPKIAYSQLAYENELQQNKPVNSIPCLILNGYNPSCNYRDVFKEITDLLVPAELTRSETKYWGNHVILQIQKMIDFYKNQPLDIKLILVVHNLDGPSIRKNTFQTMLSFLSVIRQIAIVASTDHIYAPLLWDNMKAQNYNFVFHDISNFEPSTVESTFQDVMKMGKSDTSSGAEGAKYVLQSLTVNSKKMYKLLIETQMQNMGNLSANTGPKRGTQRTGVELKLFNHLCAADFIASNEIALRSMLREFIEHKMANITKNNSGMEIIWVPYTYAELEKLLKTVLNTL

B1: Orc5 (natural protein)
chain: MNVTTPEVAFREYQTNCLASYISADPDITPSNLILQGYSGTGKTYTLKKYFNANPNLHAVWLEPVELVSWKPLLQAIARTVQYKLKTLYPNIPTTDYDPLQVEEPFLLVKTLHNIFVQYESLQEKTCLFLILDGFDSLQDLDAALFNKYIKLNELLPKDSKINIKFIYTMLETSFLQRYSTHCIPTVMFPRYNVDEVSTILVMSRCGELMEDSCLRKRIIEEQITDCTDDQFQNVAANFIHLIVQAFHSYTGNDIFALNDLIDFKWPKYVSRITKENIFEPLALYKSAIKLFLSTDDNLSENGQGESAITTNRDDLENSQTYDLSIISKYLLIASYICSYLEPRYDASIFSRKTRIIQGRAAYGRRKKKEVNPRYLQPSLFAIERLLAIFQAIFPIQGKAESGSLSALREESLMKANIEVFQNLSELHTLKLIATTMNKNIDYLSPKVRWKVNVPWEIIKEISESVHFNISDYFSDIHE
B2: Orc3 (natural protein)
chain: MSDLNQSKKMNVSEFADAQRSHYTVYPSLPQSNKNDKHIPFVKLLSGKESEVNVEKRWELYHQLHSHFHDQVDHIIDNIEADLKAEISDLLYSETTQKRRCFNTIFLLGSDSTTKIELKDESSRYNVLIELTPKESPNVRMMLRRSMYKLYSAADAEEHPTIKYEDINDEDGDFTEQNNDVSYDLSLVENFKRLFGKDLAMVFNFKDVDSINFNTLDNFIILLKSAFKYDHVKISLIFNINTNLSNIEKNLRQSTIRLLKRNYHKLDVSSNKGFKYGNQIFQSFLDTVDGKLNLSDRFVEFILSKMANNTNHNLQLLTKMLDYSLMSYFFQNAFSVFIDPVNVDFLNDDYLKILSRCPTFMFFVEGLIKQHAPADEILSLLTNKNRGLEEFFVEFLVRENPINGHAKFVARFLEEELNITNFNLIELYHNLLIGKLDSYLDRWSACKEYKDRLHFEPIDTIFQELFTLDNRSGLLTQSIFPSYKSNIEDNLLSWEQVLPSLDKENYDTLSGDLDKIMAPVLGQLFKLYREANMTINIYDFYIAFRETLPKEEILNFIRKDPSNTKLLELAETPDAFDKVALILFMQAIFAFENMGLIKFQSTKSYDLVEKCVWRGI

Columns and labels:
Experiment in all cases: cryo-EM structure
Mcm6 = Mcm6 (S. cerevisiae, UniProt P53091 1-1017)
Mcm6, sequence (P53091 whole entry): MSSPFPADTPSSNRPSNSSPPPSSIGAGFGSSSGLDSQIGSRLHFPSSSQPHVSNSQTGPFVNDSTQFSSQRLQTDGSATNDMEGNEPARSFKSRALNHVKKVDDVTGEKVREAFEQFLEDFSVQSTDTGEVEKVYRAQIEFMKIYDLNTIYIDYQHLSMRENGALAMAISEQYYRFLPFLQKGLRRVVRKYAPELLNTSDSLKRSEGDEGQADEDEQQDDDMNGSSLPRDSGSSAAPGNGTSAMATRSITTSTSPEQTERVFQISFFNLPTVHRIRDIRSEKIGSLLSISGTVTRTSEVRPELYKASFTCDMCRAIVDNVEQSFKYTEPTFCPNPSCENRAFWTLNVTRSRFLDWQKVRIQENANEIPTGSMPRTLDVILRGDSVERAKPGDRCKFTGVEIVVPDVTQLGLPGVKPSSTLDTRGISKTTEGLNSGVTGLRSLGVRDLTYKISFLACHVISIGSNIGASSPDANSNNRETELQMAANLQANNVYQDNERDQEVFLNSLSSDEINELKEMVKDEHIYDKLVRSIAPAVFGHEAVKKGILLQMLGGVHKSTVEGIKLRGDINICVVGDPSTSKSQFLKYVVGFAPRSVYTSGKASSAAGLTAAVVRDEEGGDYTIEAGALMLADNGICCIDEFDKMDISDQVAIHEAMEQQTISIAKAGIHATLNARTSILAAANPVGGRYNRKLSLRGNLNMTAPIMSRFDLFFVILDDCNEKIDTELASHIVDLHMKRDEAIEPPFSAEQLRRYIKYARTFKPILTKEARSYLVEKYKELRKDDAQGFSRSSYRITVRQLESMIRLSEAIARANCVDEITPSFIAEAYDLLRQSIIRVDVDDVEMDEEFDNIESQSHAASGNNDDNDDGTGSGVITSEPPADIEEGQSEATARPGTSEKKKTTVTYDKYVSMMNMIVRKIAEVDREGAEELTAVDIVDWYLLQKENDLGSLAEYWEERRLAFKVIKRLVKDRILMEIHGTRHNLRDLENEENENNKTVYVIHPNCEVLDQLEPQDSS

Orc3 = target: B2
Orc4 = target: T1, Orc4
Mcm2 = target: T2, Mcm2
Orc2 = target: T3, Orc2

| Binder | binding result (Mcm6) | binding result (Orc3) | binding result (Orc4) | binding result (Mcm2) | binding result (Orc2) |
| --- | --- | --- | --- | --- | --- |
| B1 | binds | binds | binds | binds | – |
| B2 | – | – | – | – | binds |
